Results: publication PMC10641296 (2023)
Several values for one entry are separate records, joined by “and”; a condition that tells them apart may be missing. Identical values can stand only once.

How the values were obtained:
[1] = molecular target: recombinant histidine-tagged SCM-2 of S. canis strain IMT42870 (Streptococcus canis); assay: SPR
[2] = molecular target: recombinant histidine-tagged SCM-2 of S. canis strain IMT40096 (Streptococcus canis); assay: SPR

B1: human fibrinogen (complex)
chain 1: GPRVVERHQSACKDSDWPFCSDEDWNYKCPSGCRMKGLIDEVNQDFTNRINKLKNSLFEYQKNNKDSHSLTTNIMEILRGDFSSANNRDNTYNRVSEDLRSRIEVLKRKVIEKVQHIQLLQKNVRAQLVDMKRLEVDIDIKIRSCRGSCSRALAREVDLKDYEDQQKQLEQVIAKDLLPSRDRQHLPLIKMKPVPDLVPGNFKSQLQKVPPEWKALTDMPQMRMELERPGGNEITRGGSTSYGTGSETESPRNPSSAGSWNSGSSGPGSTGNRNPGSSGTGGTATWKPGSSGPGSTGSWNSGSSGTGSTGNQNPGSPRPGSTGTWNPGSSERGSAGHWTSESSVSGSTGQWHSESGSFRPDSPGSGNARPNNPDWGTFEEVSGNVSPGTRREYHTEKLVTSKGDKELRTGKEKVTSGSTTTTRRSCSKTVTKTVIGPDGHKEVTKEVVTSEDGSDCPEAMDLGTLSGIGTLDGFRHRHPDEAAFFDTASTGKTFPGFFSPMLGEFVSETESRGSESGIFTNTKESSSHHPGIAEFPSRGKSSSYSKQFTSSTSYNRGDSTFESKSYKMADEAGSEADHEGTHSTKRGHAKSRPVRDCDDVLQTHPSGTQSGIFNIKLPGSSKIFSVYCDQETSLGGWLLIQQRMDGSLNFNRTWQDYKRGFGSLNDEGEGEFWLGNDYLHLLTQRGSVLRVELEDWAGNEAYAEYHFRVGSEAEGYALQVSSYEGTAGDALIEGSVEEGAEYTSHNNMQFSTFDRDADQWEENCAEVYGGGWWYNNCQAANLNGIYYPGGSYDPRNNSPYEIENGVVWVSFRGADYSLRAVRMKIRPLVTQ
chain 2: GHRPLDKKREEAPSLRPAPPPISGGGYRARPAKAAATQKKVERKAPDAGGCLHADPDLGVLCPTGCQLQEALLQQERPIRNSVDELNNNVEAVSQTSSSSFQYMYLLKDLWQKRQKQVKDNENVVNEYSSELEKHQLYIDETVNSNIPTNLRVLRSILENLRSKIQKLESDVSAQMEYCRTPCTVSCNIPVVSGKECEEIIRKGGETSEMYLIQPDSSVKPYRVYCDMNTENGGWTVIQNRQDGSVDFGRKWDPYKQGFGNVATNTDGKNYCGLPGEYWLGNDKISQLTRMGPTELLIEMEDWKGDKVKAHYGGFTVQNEANKYQISVNKYRGTAGNALMDGASQLMGENRTMTIHNGMFFSTYDRDNDGWLTSDPRKQCSKEDGGGWWYNRCHAANPNGRYYWGGQYTWDMAKHGTDDGVVWMNWKGSWYSMRKMSMKIRPFFPQQ
chain 3: YVATRDNCCILDERFGSYCPTTCGIADFLSTYQTKVDKDLQSLEDILHQVENKTSEVKQLIKAIQLTYNPDESSKPNMIDAATLKSRKMLEEIMKYEASILTHDSSIRYLQEIYNSNNQKIVNLKEKVAQLEAQCQEPCKDTVQIHDITGKDCQDIANKGAKQSGLYFIKPLKANQQFLVYCEIDGSGNGWTVFQKRLDGSVDFKKNWIQYKEGFGHLSPTGTTEFWLGNEKIHLISTQSAIPYALRVELEDWNGRTSTADYAMFKVGPEADKYRLTYAYFAGGDAGDAFDGFDFGDDPSDKFFTSHNGMQFSTWDNDNDKFEGNCAEQDGSGWWMNKCHAGHLNGVYYQGGTYSKASTPNGYDNGIIWATWKTRWYSMKKTTMKIIPFNRLTIGEGQQHHLGGAKQVRPEHPAETEYDSLYPEDDL
- Kd [1]: 177 nM and 188 nM and 208 nM
- koff [1]: 0.00271 s⁻¹ and 0.0024 s⁻¹ and 0.00216 s⁻¹
- Kd [2]: 15.5 nM and 14.3 nM and 15.1 nM
- koff [2]: 0.000922 s⁻¹ and 0.000948 s⁻¹ and 0.000989 s⁻¹
